In the domain aggregation screens of Martell et al. (2025):

Test: soluble fraction after stress (log2 fold change); higher = more stays soluble; pooled small domains, quantitative proteomics
Details: stress: pH 4
Method in brief: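 How much of each domain stays soluble after acid stress, expressed as a fold change, is used to gauge aggregation propensity. Pooled custom libraries of small domains underwent pH 4 stress before high-throughput quantitative proteomics. A higher log2 value means more of the domain stayed soluble.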

Sequence	soluble fraction (log2)
HMKIVPEPGTVLIREYQEERHEVTVTLDGAFDYKGTLYSSLSEIARLITGTRWSGPVFFGLRS	-0.353
HMNKETYIDALERKLWDRLDPDQLRDIISYYKDYFAMEAAKGISEEETIRKLGDPALLAKSILAAE	-0.145
HMKKYLNIYNIIVNKIESKEYQSNDKLPSEKELMDQYNVSRDTVRKSLNMLEQNGYIQKTKGKGSFVLDIN	0.409
HMSFNNHYEILQVQPSADREVIEAAAKALLKKHHPDLGGRNTITSHIVQAKKVLTDTSQRADFDARLRERL	0.165
HMNGLDSVLRNWARQTLASGGENLLGDLTDHVTRLIISEALIMTGGNRTRAAELLGLSRPTLLAKMDKLNL	-0.789
HMSVRPMVEILRVVGSPSPVWVTWARNRAAWLYETGIRPQQRLRMADGTEVLIRLVGEFAHILVVGG	0.0642
HMTSSQLYLIEEDMEGERLDAFLAEVIADLSRTAIKDLISNGRVLVDGQARKPSYRVKEGEQVLIHVPEAR	-1.31
HMNYKNAIGQVGSVYVPIPPNREGLGQIEVKVQSRVSTVRAVSDHSERLENRVAVRVIELVDDRTLLVEKL	-1.13
HMNTEEITYSRFQQMLEAGEISQVSIESNRILILPSEETGIEKVLYTGIINDPGLVERLNSAGVEFRAPIE	-1.16
HMYLLPVTSTELKGNYPNPFNPETTISFDLKDAERVNLSIYNLKGQLVRTLVNSDLPIGRHRLIWDGNDS	-0.609
HMIETIIGAEGKVLETIDNFNQKGVVALAGKEWTARSADASIIPEGAKVSVVEISGVKLIVTQN	-0.24
HMEKRLDYTFGLNKEQLLYLTKSIKDGDFYNVSFIDGTEKKLNRVGSTKEVHKYVNFLMTNDGIVKK	0.0133
HMGDGAWQQGEGGRWWYKYNNGTYPKDRVVTIGGKKYGFDSEGWMLSDTTKAFGGTTYSFAADGVATAQA	-0.247
HMDLATQHAAKVNAAILAARRFEREGSWRQVAAKYSEALQLMPGNEQASRGYQQAMAMLDERD	0.41
HMGVKIELNENEQAIFAAMQKQVEAVLPDLRAQFADMSNKAWDNSVKTLTKNNLLKVSKEAEILFIRL	-1.09
HMDSVEMFSPILGMNANMDLDTLTQTRDKLLEKYKDDEQLIGLVNKTYDYFNEILLKQFLIEELEKNE	-0.207
HMEQPLSLKLANNAFSRFWGNANPAEKDTQPNNSDIAKWVIEQSGGKITQTMADKIAQIIRPEWAA	0.25
HMSQPYFELAAADMEALRNALSTIREIESVVLSGKIFHVEVREDLDPGTMNKLAFERGITLTHLVKKKN	-1.06
HMFEKVKLTLTIPSKYSGSTYSALRNRMNKFSKEEWLSNGDLKIEIEVTGGQKTDIYTLINKLTNGEAIIE	-0.203

Sequence	soluble fraction (log2)
HMESFGVAIKRLREAQGWTRADFLRQLGKTGYYMHATTLKRIEEGEQIAKVHEAVIISRLFGVTVEEMG	-1.3
HMSPTEQEKIGLFIKKLREEKNLTQEAFASLLKTSQSAVARIESGNQNITIEQLMKIGEVLNHNIVSI	-0.215
HMRTPLTGREEQVATLIGRGMTNSEIAESLSVDESTVKTHIGSILRKVHLRDRLQVALWFHGLPIE	-0.354
HMKMHKIIKERRLALNFTQEQVAKYLGVTTPAVNKWEKGISYPDISLLPALARLLDTDLNTLLSF	-1.26
HMQYKTRVINLSILEVGMVLGRDLINKDGKIIVKKDVAISDFLKDHLIGLSKIKEIEPQIYIKV	-0.452
HMGRKEIIVPNLLGKYAIEAGTILKNAGLLEGQAREENSDTYPAGQIMDQFPKANTPANENDKVDYVVSI	-0.202
HMPKNEHETKAIGNQTGGRVFLFLNTDNINRDYNMYISKQVKFVREISQEYYGKVAVFEDLYGNLWDLIE	-0.222
HMLKLEDIKKDAQVKGIVDGQIVRIVTVEPIGDHALTVYYKDHQGQFAERMLFRSDELNLELATA	-0.64
HMTVLIDEQSSDGLLKITVTANTAVKSITIADELLEDKEQLEDYLILVLNKAIARANQVNQTELDAVAK	0.163
HMPVSRMRARHEALARGVMGIHAGGFSAVYGYRKVWHGLIGKGWDPGEVGRDQVMNIMRGLGMQGVRR	0.22
HMKQPNFTVIETKILELLFQKDLSSREMQEILKISKDNLIFALQNLLEQEKIVLQTSNTYTVN	-2.02
HMPPAPGHDLTEREREVLRLLVEGLSNQEISDRLVISQSTVKNHVSSVLSKLDAANRAEAVALALKNQL	-0.547
HMHFDQILAHAMDERGMNAVQLASLTGLSSGAISRYLAGDRQPTVYSIQQIAKALGVSADYLVG	0.22
HMKSKNILLGEYKGKEVHVGEGKYGPFILYDKKFKSIGAYLTENSLMLKDLTIEDYSKIMKFTENSNSKS	0.0285
HMKEPIYQTILSALILELNTNHFRKNDPFYSESELRKKYQVSSTTVVRVLNMLADQGYIYRIQGKGSFVSK	-0.5
HMPLEQAELRLDLKQAILQMDRQTQELLLLRYVDGLSPGEAGKVLELSRFAVYRREKEALRKLRDYFSH	-0.834
HMIDELNVGDIRFYLNRYGKEIQIEIIRIGDDGSVYARTMADNALFRVPEARLKNIGEKVPAEEVQRG	-0.348
HMDRQIQITVAENEAGQRLDAFLAAKIPDMSRSYIQKLIEDGLILVNGQSTKGKVKTYSGMNIEVYMPE	0.22
